Results taken from patent US20130344125A1, “DRUG DELIVERY DEVICE” (priority 2010, published 2013).
Where no end group is shown, it is not given here.

Assay: Particle size and size distribution of nano-lipobubbles by dynamic light scattering (Zetasizer NanoZS)
Assay type: physicochemical
Settings: 25° C., deionized water, extruded through 0.22 μm filter
Protocol: Particle size and size distribution of synthetic peptide ligands, non-targeted nano-lipobubbles and targeted nano-lipobubbles were analyzed by a Zetasizer NanoZS instrument (Malvern Instruments (Pty) Ltd., Worcestershire, UK) at 25° C. Samples were suspended in deionized water, and then extruded through a 0.22 μm pore size polycarbonate membrane filter prior to analysis. Each analysis was performed in triplicate.
The physicochemical properties of the targeted nano-lipobubbles in terms of size distribution and zeta-potential were examined using the standard method of dynamic light scattering measurement (Zetasizer NanoZS, Malvern Instrument). […] The diameter of synthetic peptide ligand (KVLFLS 9 SEQ ID NO: 2)) alone was in the range of 366±41 nm. When 1 mol % of the linear synthetic peptide ligand incorporated or coupled with circular non-targeted nano-lipobubbles to generate targeted nano-lipobubbles, the size distribution increased from 129 nm to 270 nm when it was compared with non-targeted nano-lipobubbles. This confirms the successfully incorporation of the synthetic peptide ligand on the surface of non-targeted nano-lipobubbles. The overall zeta potential or surface charge of the targeted nano-lipobubbles was −29 mV.

## KVLFLS (KVLFLS-NH2) [Synthetic 6 amino acid peptide ligand from human apolipoprotein A-1 targeting the SEC receptor]
  diameter (size distribution): 366±41 nm
